Source: the supplement of paper PMC9170038

Tested on: MS2 coat protein
Assay: apparent KD of MS2 coat protein; designed switch direction (-1 OFF switch, 1 ON switch): -1; higher = weaker reporter binding
In short: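 On Illumina chips, designed RNA switches with common flanks were made by stalled E. coli RNA polymerase. Titrations with SNAP-549-labelled MS2 coat protein, doubling from 0.7 or 1.5 nM to 3 µM, were done with no input, with 200 uM small-molecule ligand, or with an oligonucleotide input. Apparent KD is the median per design over clusters, from curve fits of normalised cluster fluorescence.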

[1] = Eterna round: R95, input ligand: microRNA oligo, concentration not stated
[2] = input ligand: microRNA oligo, concentration not stated
[3] = Eterna round: R95, input ligand: FMN 200 uM
[4] = Eterna round: R95, input ligand: none

| Sequence | apparent KD of MS2 coat protein [1] [nM] | apparent KD of MS2 coat protein (input ligand: FMN 200 uM) [nM] | apparent KD of MS2 coat protein (input ligand: none) [nM] | further results |
| --- | --- | --- | --- | --- |
| AAAAGGCUAGGAUAUACCAGUGGGUGUAAGAACUCAAAUUUACAUGAGGAUCACCCAUGUAGAAGGAGUAAAAU [Dilaed] (puzzle: Exclusion 2) | 19.5 | – | – | – |
| CCAGCGUAUGUGAGGAUAUGCUGGUCCUUGGAUCAGCAGAAGGCACAUGAGGAUCACCCAUGUGGAAACGUUGG [Mod of JL 1 - Jieux - Brourd's mod of Exclusion 4] (Eterna round: R97, puzzle: Brourd's mod of Exclusion 4) | – | 95.4 | 24.3 | – |
| UUUCGUGCGCGGGUUUUUUACAUGAGGAUCACCCAUGUCCUCUGCUUGUCUUGUCUUGGGCUUUUUUUGGGUUCGGG [-19.7, -39 kcal, A 8%] (Eterna round: R97, puzzle: Sensor, turn-off variant 1) | – | 771 | 868 | – |
| UUCCUCGUUGUGAGGAUAUCGUCCGUGUUUUGUUACGAGAAGGCACAUGAGGAUCACCCAUGUUACUUGAUGUU [JR_BMOE4_Sub073] (Eterna round: R96, puzzle: Brourd's mod of Exclusion 4) | – | 150 | 23.3 | apparent KD of MS2 coat protein [2]: 19 nM |
| GGAUAAAACUGAGGAUAUACGUAUCGCUAGCGAGUAGAAGGCAGACAUGAGGAUCACCCAUGUGAGUUCUCGAUAAGAAACACG [Prohibition 60 - Jieux - Exclusion NG 1] (Eterna round: R96, puzzle: Exclusion NG 1) | – | 163 | 53.3 | apparent KD of MS2 coat protein [2]: 35.5 nM |
| AAUAACAGAGGAUAUACUAUUUUAUGUAUUUAUUAUUUUAAACAUGAGGAUCACCCAUGUAGAAGGCUGAGUAA [JMF 27] (puzzle: Exclusion 2) | 22.2 | – | – | – |
| GUGUACAGAGGAUAUGCUGGAAUCUAGCGAAGCUAGGUUCCACAUGAGGAUCACCCAUGUAGAAGGCUGUACAC [Dot plot directed A v4] (puzzle: Exclusion 2) | 19.4 | – | – | – |
| UCGACCGGAGGAUAUUACGUAAAGUACAUGAGGAUCACCCAUGUGUGGUACCUCGAGUCGUAAGAAGGCCGAAAUA [Teisor] (puzzle: Exclusion 5) | 605 | – | – | apparent KD of MS2 coat protein [3]: 283 nM; apparent KD of MS2 coat protein [4]: 505 nM |
| GCACGGUAAGUGAGGAUAUACCUCUGGAUACAGAGGUAGAAGGCACAUGAGGAUCACCCAUGUCUAAACCGUGC [Fiskers BMX 4 - 82] (puzzle: Brourd's mod of Exclusion 4) | 18.6 | – | – | apparent KD of MS2 coat protein [3]: 24.9 nM; apparent KD of MS2 coat protein [4]: 18 nM |
| CCUCUACAUGAGGAUCACCCAUGUGAGGAUAUCUCGGAGCAGCCACUUAAAGCACUCCAGAGAAGGCACGUGUA [Mavemain] (puzzle: Exclusion 1) | 15.5 | – | – | – |
| CCAUUCAGAGGAUAUGCGCAUAAAUAAGACUUUUUUUUUUAACAUGAGGAUCACCCAUGUAGAAGGCUGUAACC [Ex2 #46] (Eterna round: R97, puzzle: Exclusion 2) | – | 24.6 | 24.8 | – |
| GUGUGCUGAGGAUAUACAGAGGAAGAUAAUAGAAUAGAAUGACAUGAGGAUCACCCAUGUAGAAGGCAGAGUGU [Excluse me!! 14 - Jieux - Exclusion 2] (puzzle: Exclusion 2) | 26.3 | – | – | apparent KD of MS2 coat protein [3]: 40.5 nM; apparent KD of MS2 coat protein [4]: 33.1 nM |
| UAUAUAUAGUAAGGAUAUAUAUUUAUUUUAUAAAUAGAAGGUACAGACAUGAGGAUCACCCAUGUUAUAAUAUGGACAUGUGGA [JMF's Solution 1] (Eterna round: R96, puzzle: Exclusion NG 1) | – | – | – | apparent KD of MS2 coat protein [2]: 45.3 nM |
| GAUUAUGCGAGCUUUAGGGACAUGAGGAUCACCCAUGUUCGUCUUAUUGGUCUGAGUGCACUGACAUACCUAAAUCU [JMF 86] (puzzle: Sensor v3, turn-off variant 1) | 30.9 | – | – | apparent KD of MS2 coat protein [3]: 19.4 nM; apparent KD of MS2 coat protein [4]: 19.9 nM |
| GAUCCUAGUGUCAGGAUAUGCGAACAAACGCCAAAGCAGAAGGGACUUGAGGAUCACCCAAGUCGCGAUGCGAC [Arbiaran] (Eterna round: R97, puzzle: Brourd's mod of Exclusion 4) | – | 257 | 45.1 | – |
| GAAAAUCGUAAGGAUAUCAGCGAAGAAGUACACUGAGAAGGUAUGACAUGAGGAUCACCCAUGUAGCCCGCUUA [Eternabot (L1) Solution 38] (Eterna round: R97, puzzle: Exclusion 6) | – | 18 | 13.2 | – |
| UAUGUUAGCACAGGAUAUUGUUAUUUUUUUUUUCAAGAAGGGUGUACAUGAGGAUCACCCAUGUUAUGGUUUUAUCUUUUACAA [JR_ExcNG1_Sub012] (Eterna round: R96, puzzle: Exclusion NG 1) | – | 877 | 809 | apparent KD of MS2 coat protein [2]: 247 nM |
| ACAUCACAUGAGGAUCACCCAUGUCAGGAUAUUCAGCGUAGCAUGCUACCUAACAUCAGAAGAAGGGACACGUA [First Design] (Eterna round: R97, puzzle: Exclusion 1) | – | 64.5 | 68.2 | – |
| CAGUACUGAGGAUAUACAUGAGGAUCACCCAUGUGAGAGAUACUAAUGAGGUCGAUUAGUAGAAGGCAGUACUG [Mat X3R4 m4] (Eterna round: R97, puzzle: Exclusion 3) | – | 240 | 17.5 | – |
| AAACGCCGAGGAUAUACCCAACCAGUCCUCUAAAGAAGAAAACAUGAGGAUCACCCAUGUAGAAGGCGGUGCAA [Anorti] (Eterna round: R97, puzzle: Exclusion 2) | – | 51.8 | 28.1 | – |
| CCAUAUAACUGAGGAUAUAAUCACCACUAACAUUUAGAAGGCAGACAUGAGGAUCACCCAUGUGAUUUCUCAAUAUUAUACAUC [Prohibition 77 - Jieux - Exclusion NG 1] (Eterna round: R96, puzzle: Exclusion NG 1) | – | 387 | 1140 | apparent KD of MS2 coat protein [2]: 544 nM |
| AGAUCUUCCGUAAGGAUAUGUGUGAAACAGACGGCACAGAAGGUACAUGAGGAUCACCCAUGUUACGCCGCGUA [Eternabot (L1) Solution 85] (Eterna round: R97, puzzle: Brourd's mod of Exclusion 4) | – | 62.3 | 19.1 | – |
| UGAGUGUUAGGAUAUCGCGGUUAGGCGAGUUGCUUAAUGAUCGAGAAGGGACAUGAGGAUCACCCAUGUGGGAC [Eternabot (L1) Solution 40] (Eterna round: R97, puzzle: Exclusion 4) | – | 127 | 112 | – |
| AACAAAACGCGAGGAUAUCGCCAACAUGAGGAUCACCCAUGUCACGGGUGCAAAUGUCUUCUAGGCGAGAAGGCGCAUCCAUAC [Diatza] (Eterna round: R96, puzzle: Exclusion NG 2) | – | 704 | 641 | apparent KD of MS2 coat protein [2]: 344 nM |
| UAUAUAUAGUAAGGAUAUGUAUAUAUAUUAUAAACAGAAGGUACUGACAUGAGGAUCACCCAUGUUUUAGUGUGGGCAUGUAGA [JMF's solution 58] (Eterna round: R96, puzzle: Exclusion NG 1) | – | – | – | apparent KD of MS2 coat protein [2]: 53.8 nM |
| CUCUUGUAAGGAUAUCUGACAAGUGACGAAAGUCACAGUUCAGAGAAGGUACAUGAGGAUCACCCAUGUAGAAC [Exclusion 4 - Mod Brourd Ex 4-3: 41] (puzzle: Exclusion 4) | 60.6 | – | – | – |
